# Results: patent publication US20110318827A1 (COMMISSARIAT A L ENERGIE ATOMIQUE ET AUX ENERGIES …, published 2011)
# Bridge positions count the residues as written; N and C are the ends. Square brackets hold non-standard residues; d marks the D form. Ends that are not written are not given here.
# B1: HTGRRRGG-RC-121 (peptide)
# peptide: TGRRRGGFCYWKVCT
# HELM: PEPTIDE1{T.G.R.R.R.G.G.[dF].C.Y.[dW].K.V.C.T.[am]}$PEPTIDE1,PEPTIDE1,9:R3-14:R3$$$V2.0
# SMILES: CC(C)[C@@H]1NC(=O)[C@H](CCCCN)NC(=O)[C@@H](Cc2c[nH]c3ccccc23)NC(=O)[C@H](Cc2ccc(O)cc2)NC(=O)[C@@H](NC(=O)[C@@H](Cc2ccccc2)NC(=O)CNC(=O)CNC(=O)[C@H](CCCNC(=N)N)NC(=O)[C@H](CCCNC(=N)N)NC(=O)[C@H](CCCNC(=N)N)NC(=O)CNC(=O)[C@@H](N)[C@@H](C)O)CSSC[C@@H](C(=O)N[C@H](C(N)=O)[C@@H](C)O)NC1=O
# notes: not complexed with Tc
# B2: TcO[HTGRRRGG-RC-121] (peptide)
# peptide: TGRRRGGFCYWKVCT
# modifications: [TcO]3+ core chelated by the N-terminal HTGRRR tag; free N-terminus; the RC-121 part carries D-Phe, D-Trp, a C-terminal amide and the preserved disulfide bridge
# B3: RC-121 (peptide)
# peptide: [dF]CY[dW]KVCT-NH2
# modifications: disulfide 2-7
# notes: Cyclic octapeptide somatostatin analog, made by solid phase synthesis
# How the values were obtained:
# [1] = target: T1, somatostatin receptor SST-2 (CHO-SST-2 (mb)) (Homo sapiens (Human), UniProt P30874 1-369); test: radioligand competition binding, CHO-SST-2 (mb)
# T1 construct: Printed as 'CHO-SST-2 (mb)'; also called SST-2 receptor
# [2] = target: T2, Somatostatin receptor subtype 2 (SST-2) on rat pancreatic carcinoma AR4-2J cells (rat, UniProt P30680 1-369); test: competition with [125I]-[Tyr1]-somatostatin on AR4-2J cell suspension, filtration, Cheng-Prusoff
# T2 construct: whole, on cells; Whole-cell suspension; the cells express predominantly, not only, SST-2; also called AR2-2J cells
# Procedure: (§1) The cells were grown in tissue culture dishes (Falcon) which were incubated at 37° C. in an atmosphere of 5% CO₂ and 95% humidified air in DMEM medium with 4.5 g/l glucose supplemented with 1% L-glutamine, 20% foetal calf serum, 1% penicillin/streptomycin and amphotericin B (1 μg/mL). Subculturing was performed with a trypsin/EDTA (0.05%/0.02% w/v) solution. All products were purchased from Sigma (Saint-Quentin Fallavier; France). At 100% confluence, the medium was removed and the cells were harvested using Versen buffer (PBS+5 mM EDTA), washed with ice-cold phosphate buffer and finally centrifuged at 1000 g for 7 min (4° C.). The pellet was suspended in ice-cold buffer (10 mM MgCl₂, 0.25% BSA, 50 mM HEPES pH7.5, 1% protease inhibitor cocktail (Sigma) and cells suspension was stored in ice before binding experiments.
# (§2) All binding experiments for AR4-2J cells were done at 37° C. in 10 mM MgCl₂, 0.25% BSA, 50 mM HEPES pH7.5, 1% protease inhibitor cocktail (Sigma). […] Non-specific binding was determined in the presence of 5 μM somatostatin-28. Incubation was terminated by addition of ice-cold washing buffer (Tris 10 mM pH7.2) and rapid filtration over Whatman GF/C glass fiber filters pre-soaked in 0.5% polyethylenimine. The filters activity was measured in a Cobra gamma counter. Each experiment has been performed in duplicates at least two times.
# [3] = target: somatostatin receptor SST-5 (CHO-SST-5 (mb)) (Homo sapiens (Human), UniProt P35346 1-364); test: radioligand competition binding, CHO-SST-5 (mb)
# [4] = target: T2, Somatostatin receptor subtype 2 (SST-2) …; test: competition with [125I]-[Tyr1]-somatostatin on AR4-2J cell suspension
# Procedure: as §1, §2
# [5] = target: somatostatin receptor SST-3 (CHO-SST-3 (mb)) (Homo sapiens (Human), UniProt P32745 1-418); test: radioligand competition binding, CHO-SST-3 (mb)
# [6] = target: somatostatin receptor SST-1 (CHO-SST-1 (mb)) (Homo sapiens (Human), UniProt P30872 1-391); test: radioligand competition binding, CHO-SST-1 (mb)
# somatostatin receptor SST-1 (CHO-SST-1 (mb)), sequence (P30872 whole entry, form in doubt): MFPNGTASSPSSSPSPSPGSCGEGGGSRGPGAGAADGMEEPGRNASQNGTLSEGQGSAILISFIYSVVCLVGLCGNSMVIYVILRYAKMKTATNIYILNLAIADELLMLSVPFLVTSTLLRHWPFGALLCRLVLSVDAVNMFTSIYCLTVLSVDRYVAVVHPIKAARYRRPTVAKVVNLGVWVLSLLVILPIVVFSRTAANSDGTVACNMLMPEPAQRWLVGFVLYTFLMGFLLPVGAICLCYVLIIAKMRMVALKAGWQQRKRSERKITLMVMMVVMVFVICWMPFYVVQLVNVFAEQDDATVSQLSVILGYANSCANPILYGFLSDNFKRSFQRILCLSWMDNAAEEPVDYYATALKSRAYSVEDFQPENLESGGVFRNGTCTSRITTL
# T2 sequence (P30680 whole entry): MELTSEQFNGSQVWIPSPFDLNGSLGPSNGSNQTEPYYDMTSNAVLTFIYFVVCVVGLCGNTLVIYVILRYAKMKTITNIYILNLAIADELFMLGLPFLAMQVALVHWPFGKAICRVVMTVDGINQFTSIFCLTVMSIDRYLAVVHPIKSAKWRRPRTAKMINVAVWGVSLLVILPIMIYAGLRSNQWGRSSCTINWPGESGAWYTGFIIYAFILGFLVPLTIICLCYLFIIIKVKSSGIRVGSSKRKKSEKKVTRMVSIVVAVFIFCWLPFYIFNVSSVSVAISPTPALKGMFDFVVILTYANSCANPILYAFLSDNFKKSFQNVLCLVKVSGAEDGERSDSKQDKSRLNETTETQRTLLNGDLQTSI
# T1 sequence (P30874 whole entry, form in doubt): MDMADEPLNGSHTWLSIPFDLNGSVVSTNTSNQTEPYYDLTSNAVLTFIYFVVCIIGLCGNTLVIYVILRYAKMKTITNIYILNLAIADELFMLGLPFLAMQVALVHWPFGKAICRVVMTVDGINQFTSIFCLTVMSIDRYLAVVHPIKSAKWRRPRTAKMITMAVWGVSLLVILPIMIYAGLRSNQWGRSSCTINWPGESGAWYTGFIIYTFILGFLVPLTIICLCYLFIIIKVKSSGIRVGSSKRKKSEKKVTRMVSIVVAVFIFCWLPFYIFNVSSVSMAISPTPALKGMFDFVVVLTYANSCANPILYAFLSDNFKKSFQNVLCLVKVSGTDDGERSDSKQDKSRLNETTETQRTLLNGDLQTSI
# somatostatin receptor SST-3 (CHO-SST-3 (mb)), sequence (P32745 whole entry, form in doubt): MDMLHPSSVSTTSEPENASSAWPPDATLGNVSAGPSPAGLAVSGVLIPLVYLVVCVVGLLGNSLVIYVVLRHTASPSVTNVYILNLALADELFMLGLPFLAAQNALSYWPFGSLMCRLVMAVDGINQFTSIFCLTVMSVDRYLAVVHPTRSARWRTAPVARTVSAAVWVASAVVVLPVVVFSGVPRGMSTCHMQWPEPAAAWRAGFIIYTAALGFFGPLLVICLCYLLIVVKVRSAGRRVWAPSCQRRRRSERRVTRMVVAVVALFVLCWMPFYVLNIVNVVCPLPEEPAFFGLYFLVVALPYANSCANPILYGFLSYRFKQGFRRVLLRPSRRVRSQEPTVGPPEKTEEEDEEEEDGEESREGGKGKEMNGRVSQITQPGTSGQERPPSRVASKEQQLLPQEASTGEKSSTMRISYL
# somatostatin receptor SST-5 (CHO-SST-5 (mb)), sequence (P35346 whole entry, form in doubt): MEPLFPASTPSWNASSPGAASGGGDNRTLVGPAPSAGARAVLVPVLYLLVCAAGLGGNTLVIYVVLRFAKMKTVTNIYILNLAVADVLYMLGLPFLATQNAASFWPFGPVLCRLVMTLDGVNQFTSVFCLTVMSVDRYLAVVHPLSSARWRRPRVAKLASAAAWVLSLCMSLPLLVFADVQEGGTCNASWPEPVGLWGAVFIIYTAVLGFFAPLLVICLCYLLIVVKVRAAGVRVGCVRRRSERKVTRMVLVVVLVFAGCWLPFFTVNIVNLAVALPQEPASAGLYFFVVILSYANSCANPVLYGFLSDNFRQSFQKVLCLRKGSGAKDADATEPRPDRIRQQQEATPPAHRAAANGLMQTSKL
Binder,Ki [1],Ki [2],Ki [3],Kd [4],Ki [5],Ki [6]
B1,0.02 nM,0.035 nM,,,,
B2,0.02 nM,0.066 nM,30 nM,0.06 nM,10 nM,58 nM
B3,,0.3 nM,,,,
